Tests used:
[1] = molecular target: T1, NLRC5-D2, containing the LRR-R1 (aa 651-898)
T1 chain: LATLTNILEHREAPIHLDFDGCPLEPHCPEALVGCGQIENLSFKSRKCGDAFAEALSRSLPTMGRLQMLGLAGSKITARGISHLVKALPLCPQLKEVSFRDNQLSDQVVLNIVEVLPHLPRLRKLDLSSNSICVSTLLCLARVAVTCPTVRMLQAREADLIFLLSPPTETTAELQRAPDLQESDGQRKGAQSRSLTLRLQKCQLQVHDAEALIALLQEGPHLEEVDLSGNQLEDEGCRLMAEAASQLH

[2] = molecular target: T2, NLRC5-D3, containing the link region and LRR-R2 (aa 900-1329)
T2 chain: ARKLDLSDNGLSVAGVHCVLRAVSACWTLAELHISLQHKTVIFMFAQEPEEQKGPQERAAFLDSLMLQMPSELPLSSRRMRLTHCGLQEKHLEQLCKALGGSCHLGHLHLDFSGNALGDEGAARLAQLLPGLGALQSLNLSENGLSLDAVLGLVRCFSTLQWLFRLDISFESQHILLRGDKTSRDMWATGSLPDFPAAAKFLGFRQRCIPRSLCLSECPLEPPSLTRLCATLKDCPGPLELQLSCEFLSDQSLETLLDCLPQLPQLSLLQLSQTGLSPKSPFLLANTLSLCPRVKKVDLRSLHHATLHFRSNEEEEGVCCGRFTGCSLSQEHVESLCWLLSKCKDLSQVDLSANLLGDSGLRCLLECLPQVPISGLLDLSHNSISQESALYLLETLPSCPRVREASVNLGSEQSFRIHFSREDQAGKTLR

[3] = molecular target: T3, NLRC5-D1, containing the CARD and NOD domains (aa 1-517)
T3 chain: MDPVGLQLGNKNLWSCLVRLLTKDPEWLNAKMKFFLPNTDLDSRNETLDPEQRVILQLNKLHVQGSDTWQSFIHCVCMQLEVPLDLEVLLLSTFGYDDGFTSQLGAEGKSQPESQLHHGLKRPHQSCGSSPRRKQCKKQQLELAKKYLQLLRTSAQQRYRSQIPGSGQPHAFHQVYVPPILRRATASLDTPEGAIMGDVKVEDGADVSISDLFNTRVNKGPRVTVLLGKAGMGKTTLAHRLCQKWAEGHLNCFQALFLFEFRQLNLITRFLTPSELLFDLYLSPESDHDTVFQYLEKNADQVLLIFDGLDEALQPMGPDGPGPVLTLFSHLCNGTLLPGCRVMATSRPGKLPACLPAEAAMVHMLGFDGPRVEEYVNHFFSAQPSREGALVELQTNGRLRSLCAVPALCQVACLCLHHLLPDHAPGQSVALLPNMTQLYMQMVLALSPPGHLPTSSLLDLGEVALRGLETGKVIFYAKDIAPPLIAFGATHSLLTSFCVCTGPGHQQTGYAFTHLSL

[4] = molecular target: T4, NLRC5-D4, containing the CARD domain and LRR-R3 (aa 1-215 plus 1471-1866)
T4 chain: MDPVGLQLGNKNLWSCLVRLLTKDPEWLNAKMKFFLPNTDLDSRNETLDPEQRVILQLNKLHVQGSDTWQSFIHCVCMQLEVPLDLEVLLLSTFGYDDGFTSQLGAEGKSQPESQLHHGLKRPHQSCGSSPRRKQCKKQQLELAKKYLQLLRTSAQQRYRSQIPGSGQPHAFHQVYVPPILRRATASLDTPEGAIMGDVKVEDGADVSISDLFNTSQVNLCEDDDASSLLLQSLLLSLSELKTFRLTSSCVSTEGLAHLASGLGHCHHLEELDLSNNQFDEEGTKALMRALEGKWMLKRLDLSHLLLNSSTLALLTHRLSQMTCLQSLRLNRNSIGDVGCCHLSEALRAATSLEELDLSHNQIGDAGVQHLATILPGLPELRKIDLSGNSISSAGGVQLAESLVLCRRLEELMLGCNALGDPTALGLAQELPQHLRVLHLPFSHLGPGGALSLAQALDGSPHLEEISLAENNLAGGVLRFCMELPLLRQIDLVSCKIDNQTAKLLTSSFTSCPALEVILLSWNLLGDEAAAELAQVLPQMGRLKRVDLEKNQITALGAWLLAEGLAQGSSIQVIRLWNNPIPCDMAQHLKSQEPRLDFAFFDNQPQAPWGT

B1: Flag-tagged IKKα (protein)
chain: MERPPGLRPGAGGPWEMRERLGTGGFGNVCLYQHRELDLKIAIKSCRLELSTKNRERWCHEIQIMKKLNHANVVKACDVPEELNILIHDVPLLAMEYCSGGDLRKLLNKPENCCGLKESQILSLLSDIGSGIRYLHENKIIHRDLKPENIVLQDVGGKIIHKIIDLGYAKDVDQGSLCTSFVGTLQYLAPELFENKPYTATVDYWSFGTMVFECIAGYRPFLHHLQPFTWHEKIKKKDPKCIFACEEMSGEVRFSSHLPQPNSLCSLVVEPMENWLQLMLNWDPQQRGGPVDLTLKQPRCFVLMDHILNLKIVHILNMTSAKIISFLLPPDESLHSLQSRIERETGINTGSQELLSETGISLDPRKPASQCVLDGVRGCDSYMVYLFDKSKTVYEGPFASRSLSDCVNYIVQDSKIQLPIIQLRKVWAEAVHYVSGLKEDYSRLFQGQRAAMLSLLRYNANLTKMKNTLISASQQLKAKLEFFHKSIQLDLERYSEQMTYGISSEKMLKAWKEMEEKAIHYAEVGVIGYLEDQIMSLHAEIMELQKSPYGRRQGDLMESLEQRAIDLYKQLKHRPSDHSYSDSTEMVKIIVHTVQSQDRVLKELFGHLSKLLGCKQKIIDLLPKVEVALSNIKEADNTVMFMQGKRQKEIWHLLKIACTQSSARSLVGSSLEGAVTPQTSAWLPPTSAEHDHSLSCVVTPQDGETSAQMIEENLNCLGHLSTIIHEANEEQGNSMMNLDWSWLTE
- phosphorylation of IKKα [1]: NLRC5-D1, -D2 and -D4 produced little or only slight inhibition
- phosphorylation of IKKα [2]: NLRC5-D3 strongly inhibited IKKα and IKKβ phosphorylation
- phosphorylation of IKKα [3]: NLRC5-D1, -D2 and -D4 produced little or only slight inhibition
- phosphorylation of IKKα [4]: NLRC5-D1, -D2 and -D4 produced little or only slight inhibition

B2: Flag-tagged IKKβ (full length) (protein)
chain: MSWSPSLTTQTCGAWEMKERLGTGGFGNVIRWHNQETGEQIAIKQCRQELSPRNRERWCLEIQIMRRLTHPNVVAARDVPEGMQNLAPNDLPLLAMEYCQGGDLRKYLNQFENCCGLREGAILTLLSDIASALRYLHENRIIHRDLKPENIVLQQGEQRLIHKIIDLGYAKELDQGSLCTSFVGTLQYLAPELLEQQKYTVTVDYWSFGTLAFECITGFRPFLPNWQPVQWHSKVRQKSEVDIVVSEDLNGTVKFSSSLPYPNNLNSVLAERLEKWLQLMLMWHPRQRGTDPTYGPNGCFKALDDILNLKLVHILNMVTGTIHTYPVTEDESLQSLKARIQQDTGIPEEDQELLQEAGLALIPDKPATQCISDGKLNEGHTLDMDLVFLFDNSKITYETQISPRPQPESVSCILQEPKRNLAFFQLRKVWGQVWHSIQTLKEDCNRLQQGQRAAMMNLLRNNSCLSKMKNSMASMSQQLKAKLDFFKTSIQIDLEKYSEQTEFGITSDKLLLAWREMEQAVELCGRENEVKLLVERMMALQTDIVDLQRSPMGRKQGGTLDDLEEQARELYRRLREKPRDQRTEGDSQEMVRLLLQAIQSFEKKVRVIYTQLSKTVVCKQKALELLPKVEEVVSLMNEDEKTVVRLQEKRQKELWNLLKIACSKVRGPVSGSPDSMNASRLSQPGQLMSQPSTASNSLPEPAKKSEELVAEAHNLCTLLENAIQDTVREQDQSFTALDWSWLQTEEEEHSCLEQAS
- phosphorylation of IKKβ [1]: NLRC5-D1, -D2 and -D4 produced little or only slight inhibition
- phosphorylation of IKKβ [2]: NLRC5-D3 strongly inhibited IKKα and IKKβ phosphorylation
- phosphorylation of IKKβ [3]: NLRC5-D1, -D2 and -D4 produced little or only slight inhibition
- phosphorylation of IKKβ [4]: NLRC5-D1, -D2 and -D4 produced little or only slight inhibition

Source: patent US20110229560
